Laboratory results reported in PMC6414199, “Bim escapes displacement by BH3-mimetic anti-cancer drugs by double-bolt locking both Bcl-XL and Bcl-2” (eLife, 2019).
Where a chain is given by its changes, count along the chain named. In names and notes the source's numbering stands. Each block holds one binder with its values, some of them ahead of it.

Key:
[1] = molecular target: Bcl-XL single-cysteine mutant 152C, Alexa647-labelled, Q07817-1; experiment: FRET with purified proteins; details: chain shown with the change, highest ABT-263 point, x position est. about 3000 nM, read off a plot
[2] = molecular target: mCerulean3-Bcl-2 (human), P10415; experiment: FRET or BRET; FLIM-FRET in live MCF-7 cells: mCer3-Bcl-XL or mCer3-Bcl-2 stably expressed (donor), Venus-BH3 protein transiently expressed (acceptor); binding curves of FLIM-FRET efficiency against the Venus:mCer3 intensity ratio, 25 C; untreated, DMSO, 20 uM ABT-263 (18-24 h) or 1.25-20 uM A-1155463, A-1331852, ABT-263; R values interpolated at ratio 0.5 (Bcl-XL) or 0.25 (Bcl-2), ^VBad4E signal subtracted; details: remark: other sources report otherwise
[3] = molecular target: mCerulean3-Bcl-XL (human), Q07817; experiment: as above; details: remark: other sources report otherwise
[4] = in solution, without liposomes, parent: est. 68
[5] = with liposomes, parent: est. 99

Chain of mCerulean3-Bcl-XL (human), Q07817 (Q07817 whole entry): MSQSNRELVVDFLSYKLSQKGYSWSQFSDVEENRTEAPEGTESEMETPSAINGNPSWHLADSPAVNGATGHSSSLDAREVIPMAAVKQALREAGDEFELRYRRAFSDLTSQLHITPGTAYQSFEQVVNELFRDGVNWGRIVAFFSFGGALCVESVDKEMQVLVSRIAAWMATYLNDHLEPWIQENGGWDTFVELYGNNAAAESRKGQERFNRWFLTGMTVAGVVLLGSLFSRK
Chain of Bcl-XL single-cysteine mutant 152C, Alexa647-labelled, Q07817-1 (Q07817 whole entry, stated change not applied): as the sequence (Q07817 whole entry) above
Chain of mCerulean3-Bcl-2 (human), P10415 (P10415 whole entry): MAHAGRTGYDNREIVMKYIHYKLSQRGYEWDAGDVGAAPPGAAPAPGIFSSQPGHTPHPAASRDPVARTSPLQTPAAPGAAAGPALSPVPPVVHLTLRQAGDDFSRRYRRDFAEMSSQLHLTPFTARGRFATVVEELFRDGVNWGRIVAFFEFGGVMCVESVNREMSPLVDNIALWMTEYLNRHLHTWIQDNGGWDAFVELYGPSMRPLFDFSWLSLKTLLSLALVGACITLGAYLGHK

response (% BH3 protein bound) [1, 4]: 18 | response (% BH3 protein bound) [1, 5]: 22
B1: BimL single-cysteine mutant 41C, Alexa568-labelled I188E (protein)
chain: MAKQPSDVSSECDREGGQLQPAERPPQLRPGAPTSLQTEPCDRSPAPMSCDKSTQTPSPPCQAFNHYLSAMASIRQSQEEPEDLRPEIRIAQELRRIGDEFNETYTRRVFANDYREAEDHPQMVILQLLRFEFRLVWRRH

response (% BH3 protein bound) [1, 4]: 14 | response (% BH3 protein bound) [1, 5]: 24
B2: BimL single-cysteine mutant 41C, Alexa568-labelled I181E (protein)
chain: B1 chain with I125E, E132I

R (ABT-263), % of FRET signal left with 20 uM ABT-263 [2]: 18.6% | IC50 of A-1155463 for disrupting the pair [3]: < 1250 nM | IC50 of A-1331852 for disrupting the pair [3]: < 1250 nM | IC50 of ABT-263 for disrupting the pair [3]: > 10000 nM | R (ABT-263), % of FRET signal left with 20 uM ABT-263 [3]: 46.4% | R with A-1155463, % of FRET signal left [3]: 45% | R with A-1331852, % of FRET signal left [3]: 20%
B3: Venus-Bad, Q92934 1-168 (natural protein)
chain: MFQIPEFEPSEQEDSSSAERGLGPSPAGDGPSGSGKHHRQAPGLLWDASHQQEQPTSSSHHGGAGAVEIRSRHSSYPAGTEDDEGMGEEPSPFRGRSRSAPPNLWAAQRYGRELRRMSDEFVDSFKKGLPRPKSAGTATQMRQSSSWTRVFQSWWDRNLGRGSSAPSQ
